Data as given in patent US7998940B2, “Aptamers to von Willebrand factor and their use as thrombotic disease therapeutics” (Archemix Corp., priority 2004, dated 2011).
Where two headings read alike, the source gives them in different places. Oligonucleotides are written 5' to 3', each unit as a sugar letter and its base; * is a phosphorothioate linkage, no mark a phosphodiester; rarer units and linkages stand in square brackets, end groups in braces. Plain capitals give the bases only. [invdT] = inverted (3'-3') thymidine; d = 2'-deoxy (DNA); m = 2'-O-methyl; r = 2'-OH (RNA); f = 2'-fluoro

Experiments:
[1] = tested on: vWF dependent platelet plug formation, human whole blood; assay: PFA-100 assay, human whole blood; type: cell-based; conditions: for ~IC95 PFA-100 (nM) with citrated human whole blood: minimum concentration that extends closing time to 300 seconds
Excerpt: Another assay of this Example, using the PFA-100 instrument, is an agonist independent but vWF dependent assay that uses the PFA-100 instrument (Harrison et al., Clin. Lab. Haem., v24, p 225-32 (2002)). The PFA-100 simulates the formation of a hemostatic plug under conditions of high shear force in vivo by recording the time required for a platelets to aggregate and block the flow of citrated whole blood through a microscopic aperture in a membrane coated with collagen and either epinephrine or ADP. This activity is von Willebrand factor dependent as high MW vWF multimers bind to immobilized collagen on the membrane and then bind to and activate platelets because of the shear force induced by drawing the blood through the microscopic aperture.
Fresh whole blood was collected from healthy non-steroidal anti-inflammatory drug (NSAID) free cynomolgus macaques. Aptamers were diluted with physiological saline from Aldon (Cat#9420306) in no-additive vacutainer tubes (Cat#366434, Becton Dickenson). Samples were loaded onto collagen/epinephrine test cartridges (Cat#B4170-20A, Dade Behring) which were used in the PFA-100 machine (Dade Behring). Trigger solution (Cat#B4170-50, Dade Behring) was used in the self-test and to pre-wet the test cartridges. O-ring cleaning pads (Cat#B4170-73, Dade Behring) were used in the self-test and in the O-ring cleaning process.
A self-test, which included an O-ring cleaning process, was always run on the PFA-100 machine before running any samples to ensure proper function of the machine.
During the entire experiment, the tubes of whole blood were gently inverted every five minutes to prevent settling.
In order to assay the titration of aptamer in whole blood, the aptamer was added to no-additive vacutainer tubes and diluted to the desired concentrations (ex: 0 nM, 1 nM to 1000 nM) using physiological saline such that the final volume was […]. When the PFA-100 was ready to run the next set of samples, 1940 μl of whole blood was added to the tube containing a concentration of aptamer. This tube was gently inverted three times to thoroughly mix the aptamer and blood. Samples were always run in duplicate on the PFA-100 machine. 800 μl of this blood mixture was loaded into the collagen/epinephrine test cartridges. The test cartridges were loaded onto the PFA-100 machine. The time of occlusion of the aperture was measured by the PFA-100, with a maximal time of 300 seconds. We estimate the IC95 in this assay to be the minimum concentration of aptamer that extends the closing time to 300 seconds.

[2] = tested on: full length human vWF (SEQ ID NO 7); assay: dot blot KD determination and extent of binding, full length human vWF; conditions: for % binding @ 100 nM vWF: extent of aptamer binding at 100 nM full length human vWF; for binding to human vWF: in words;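 for all read-outs here: dot blot binding of aptamers to full length human vWF across a protein titration, incubated 30 minutes at room temperature in 1x DPBS with BSA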
Description: Based on this initial screen, KDs were determined for 3 of the vWF dependent binding sequences using the dot blot assay. […] A 12 point protein titration was used in the dot blot assay (300 nM, 100 nM, 30 nM, 10 nM, 3 nM, 1 nM, 300 pM, 100 pM, 30 pM, 10 pM, 3 pM, 0 pM) in 1×DPBS plus 0.1 mg/mL BSA at room temperature for 30 minutes.
An 8 point protein titration was used in the dot blot binding assay (100n M, 30 nM, 10 nM, 3 nM, 1 nM, 300 pM, 100 pM, 0 pM)) in 1× Dulbecco's PBS containing 0.1 BSA (final volume of 50 uL) for 30 minutes at room temperature.

[3] = tested on: rabbit vWF A1 domain (SEQ ID NO 6); assay: 3-point dot blot screen, rabbit vWF A1 domain; type: binding; conditions: for Screen- Rabbit/No Protein: 100 nM rabbit vWF A1 domain, ratio of fraction bound with target to without; for Screen Rabbit/No Protein: 3-point dot blot screen, 20 nM rabbit vWF A1 domain, ratio of fraction of aptamer bound with target protein to fraction bound without protein
Summary of the method: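 Rabbit vWF A1 domain binding was screened by dot blot using three conditions: no target protein, human vWF, and rabbit vWF A1 domain at 100 nM (20 nM in the screen run twice). Radiolabeled aptamer bound to nitrocellulose was quantified, and results are expressed as the ratio of bound fraction with protein to bound fraction without protein.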

[4] = biological target: T1, human vWF A1 domain (SEQ ID NO 5) (Homo sapiens, UniProt P04275, T1381A); assay: 3-point dot blot screen, human vWF A1 domain; type: binding; conditions: 100 nM human vWF A1 domain
Summary of the method: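 Values are ratios of aptamer fraction retained on nitrocellulose with 100 nM vWF A1 domain (human or rabbit) versus a no-protein control. Unique clones from rounds 9 and 12 pools were transcribed, desalted and 5'-32P labeled before this three-point dot blot screen.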

[5] = biological target: T1, human vWF A1 domain (SEQ ID NO 5); assay: dot blot KD determination, human vWF A1 domain
Description: For KD determination, aptamers transcripts were purified on 10% denaturing polyacrylamide gels, 5′ end labeled with γ-^32P ATP.
For KD determination, aptamers were purified on denaturing polyacrylamide gels and 5′-end labeled with γ-^32P ATP. A 6 point protein titration of human vWF A1 domain (SEQ ID NO 5) was used in the dot blot assay (333 nM, 100 nM, 33 nM, 10 nM, 3 nM, 0 nM) in 1×DPBS plus 0.1 mg/mL BSA at room temperature for 30 minutes. KD values were calculated by fitting the equation y=(max/(1+K/protein))+yint using KaleidaGraph (KaleidaGraph v. 3.51, Synergy Software).
KD values were calculated by fitting the equation y=(max/(1+K/protein))+yint using KaleidaGraph (KaleidaGraph v. 3.51, Synergy Software).
All minimer sequences were transcribed, gel-purified on 15% denaturing polyacrylamide gels, 5-^32 end-labeled with γ^32P ATP, and then desalted using two Centri-Spin 10 columns (Princeton Separations Cat. #CS-101, Adelphia, N.J.). For KD determination, minimer transcripts were tested for direct binding to full length human vWF (SEQ ID NO 7), human vWF A1 domain (SEQ ID NO 5), and rabbit vWF A1 domain (SEQ ID NO 6) using an 8 point protein titration from 0-300 nM (3 fold dilutions) in 1× Dulbecco's PBS containing 0.1 mg/mL BSA (in a final volume of 50 uL) for 30 minutes at room temperature and then applied to a nitrocellulose and nylon filter sandwich in a dot blot apparatus (Schleicher and Schuell, Keene, N.H.). KD values were calculated by fitting the equation y=(max/(1+K/protein))+yint using KaleidaGraph (KaleidaGraph v. 3.51, Synergy Software).
All minimer DNA sequences were chemically synthesized, 5-^32P end-labeled with γ-^32P ATP, and then desalted using two Centri-Spin 10 columns (Princeton Separations, Cat. #CS-101, Adelphia, N.J.). […] KD values were calculated by fitting the equation y=(max/(1+K/protein))+yint using KaleidaGraph (KaleidaGraph v. 3.51, Synergy Software).

full length human vWF = assay: 3-point dot blot screen, full length human vWF; type: binding; conditions: 20 nM full length human vWF, ratio of fraction of aptamer bound with target protein to fraction bound without protein
Summary of the method: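 Unique aptamer clones tested twice by nitrocellulose dot blot with no protein, 20 nM full-length human vWF or 20 nM rabbit vWF A1 domain. Value is fraction of aptamer bound with target divided by fraction bound without protein.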

[6] = Phase 3 modification, full length human vWF, dot blot, 8 point protein titration, read-out: KD
[7] = Phase 4 and 5 modification, full length human vWF, read-out: KD
[8] = rRdY aptamers, ratio of fraction bound with target to without
[9] = read-out: Human A1 KD, rRdY aptamers, 6 point protein titration

T1 sequence (P04275 with tags, fused parts or gaps T1381A): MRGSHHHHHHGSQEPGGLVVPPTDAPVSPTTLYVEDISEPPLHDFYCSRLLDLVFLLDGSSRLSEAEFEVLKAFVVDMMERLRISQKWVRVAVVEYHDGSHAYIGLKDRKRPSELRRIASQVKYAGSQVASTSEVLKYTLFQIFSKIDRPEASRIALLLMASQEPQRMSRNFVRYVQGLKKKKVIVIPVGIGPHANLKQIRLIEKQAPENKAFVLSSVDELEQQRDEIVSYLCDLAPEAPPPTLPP
rabbit vWF A1 domain (SEQ ID NO 6), sequence (as listed by the source): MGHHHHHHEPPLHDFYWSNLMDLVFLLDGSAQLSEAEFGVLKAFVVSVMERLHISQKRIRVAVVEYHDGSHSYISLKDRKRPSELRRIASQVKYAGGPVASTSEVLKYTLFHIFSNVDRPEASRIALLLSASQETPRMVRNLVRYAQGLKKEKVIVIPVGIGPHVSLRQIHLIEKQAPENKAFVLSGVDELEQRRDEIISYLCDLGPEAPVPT

PEG20K-NH2-mGmCmGmUdGdCdAmGmUmGmCmCmUmUmCmGmGmCdCmG-s-TmGdCdGdGTmGmCdCmUdCdCmGmUdCmAmCmGmC-3T [ARC1779]
~IC95 PFA-100 (nM) with citrated human whole blood [1]: ~100 nM

dGdGdCdGTdGdCdAdGTdGdCdCTTdCdGdGdCdCdGTdGdCdGdGTdGdCdCTdCdCdGTdCdAdCdGdCdC-3T (DNA GGCGTGCAGTGCCTTCGGCCGTGCGGTGCCTCCGTCACGCC; DNA, [invdT] at 3' end, backbone and methylation of C not given here) [ARC1172, ARC1115 with 3'-inverted dT]
% binding @ 100 nM vWF ([2]; Phase 1 modification): 37%
Kd ([2]; Phase 1 modification, full length human vWF, dot blot, 8 point protein titration, read-out: KD): 2 nM
% binding @ 100 nM vWF ([2]; Phase 3 modification): 37%
Kd [2, 6]: 2 nM
% binding @ 100 nM vWF ([2]; Phase 4 and 5 modification): 37%
Kd [2, 7]: 2 nM
binding to human vWF ([2]; dot blot): shown to bind
~IC95 PFA-100 (nM) with citrated human whole blood [1]: ~100 nM

mGmCmGmUdGdCdAmGmUmGmCmCmUmUmCmGmGmCdCmG-s-TmGdCdGdGTmGmCdCmUdCdCmGmUdCmAmCmGmC-3T (GCGUGCAGUGCCUUCGGCCGTGCGGTGCCUCCGUCACGC; sugars from the 5' end mmmmdddmmmmmmmmmmmdmdmddddmmdmddmmdmmmm, [invdT] at 3' end, backbone not given here) [ARC1368]
% binding @ 100 nM vWF ([2]; Phase 3 modification): 38.2%
Kd [2, 6]: 1.8 nM
% binding @ 100 nM vWF ([2]; Phase 4 and 5 modification): 38.2%
Kd [2, 7]: 1.8 nM
binding to human vWF ([2]; dot blot): affinity identical (within experimental error) to that of the parent compound
~IC95 PFA-100 (nM) with citrated human whole blood [1]: ~100 nM
potency in PFA-100 assay ([1]; in words, human whole blood): potency comparable to ReoPrO™

B1: AMX206.D8: rRdY aptamer clone (nucleic acid)
chain: rGrGrArGdCrGdCrAdCdTdCrArGdCdCrAdCrGrAdCrGrGdTrGrAdTrGrGrAdTdTrArGdCrGdCrGrGdTrGrGrAdTdCdTdTrArAdCrGdTrGdCrGrArGdTdTdTdCrGrAdCdCdTdCdTdCdTrGdCdTrArGdC
Screen- Rabbit/No Protein ([3]; rRdY aptamers): 3.76
Screen- Human/No Protein [4, 8]: 2.80
Kd [5, 9]: 370 nM

B2: AMX237.G6: DNA SELEX 2 aptamer clone (nucleic acid)
DNA: CTACCTACGATCTGACTAGCGTGCAGTGCCTATTCCAGGCCGTGCGGTGCCTCCGTCACGCTTACTCTCATGTAGTTCC
modifications: DNA, backbone and methylation of C not given here
notes: DNA SELEX 2 aptamer clone
Kd ([2]; dot blot, 12 point protein titration, 1xDPBS plus 0.1 mg/mL BSA, room temperature, 30 minutes, read-out: full length human vWF KD): 0.2 nM
Screen Rabbit/No Protein [3]: 3.63
Screen- Human/No Protein (full length human vWF): 3.80

B3: AMX205.H10: rRdY aptamer clone (nucleic acid)
chain: rGrGrArGdCrGdCrAdCdTdCrArGdCdCrAdCdTrGdTdTrGdCdCrGrAdCrGrGdTrGrAdTrGdTrAdTdTrArAdCrGdCrGrGrGdCrArAdCrGdTdTrGrGdTrGdTdTdTdCrGrAdCdCdTdCdTdCdTrGdCdTrArGdC
Screen- Rabbit/No Protein ([3]; rRdY aptamers): 2.47
Screen- Human/No Protein [4, 8]: 1.88
Kd [5, 9]: 397 nM

B4: AMX203.G9: rRdY aptamer clone (nucleic acid)
chain: rGrGrArGdCrGdCrAdCdTdCrArGdCdCrAdCrGrGrGrGdTrGrGrGdTrArGrAdCrGrGdCrGrGrGdTrAdTrGdTrGrGdCdTrGrGdTrGdTdCrGrArArGrGrGdTdTdTdCrGrAdCdCdTdCdTdCdTrGdCdTrArGdC
Screen- Rabbit/No Protein ([3]; rRdY aptamers): 1.35
Screen- Human/No Protein [4, 8]: 1.65
Kd [5, 9]: 1.3 nM

B5: AMX201.C8: rRfY aptamer clone (nucleic acid)
chain: rGrGrArGfCrGfCrAfCfUfCrArGfCfCrAfCfCfCfUfCrGfCrArArGfCrAfUfUfUfUrArArGrArAfUrGrAfCfUfUrGfUrGfCfCrGfCfUrGrGfCfUrGfUfUfUfUfCrGrAfCfCfUfCfUfCfUrGfCfUrArGfC
Screen- Rabbit/No Protein ([3]; rRfY aptamers): 1.50
Screen- Human/No Protein ([4]; rRfY aptamers, ratio of fraction bound with target to fraction bound without target): 2.47
Kd ([5]; read-out: human A1 KD, rRfY aptamers, 8 point titration of human vWF A1 domain): 0.2 nM

B6: AMX237.A2: DNA SELEX 2 aptamer clone (nucleic acid)
chain: CTACCTACGATCTGACTAGCTCCAGTGTTTCATCCAATAACCGTGCGGTGCCTCCGTGAGCTTACTCTCATGTAGTTCC
modifications: DNA, backbone and methylation of C not given here
notes: DNA SELEX 2 aptamer clone
Screen Rabbit/No Protein [3]: 2.34
Screen- Human/No Protein (full length human vWF): 2.60

B7: AMX238.D12: DNA SELEX 2 aptamer clone (nucleic acid)
DNA: CTACCTACGATCTGACTAGCTCCAGTGTTTCATTCAATAACCGTGCGGTGCCTCCGTGAGCTTACTCTCATGTAGTTCC
modifications: DNA, backbone and methylation of C not given here
notes: DNA SELEX 2 aptamer clone
Screen Rabbit/No Protein [3]: 2.19
Screen- Human/No Protein (full length human vWF): 2.40

B8: AMX238.G5: DNA SELEX 2 aptamer clone (nucleic acid)
DNA: CTACCTACGATCTGACTAGCTCCAGTGTTTTATTCAATAACCGTGCGGTGCCTCCGTGAGCTTACTCTCATGTAGTTCC
modifications: DNA, backbone and methylation of C not given here
notes: DNA SELEX 2 aptamer clone
Screen Rabbit/No Protein [3]: 2.68
Screen- Human/No Protein (full length human vWF): 3.06

B9: AMX237.B11: DNA SELEX 2 aptamer clone (nucleic acid)
DNA: CTACCTACGATCTGACTAGCTCCAGTGTTTTATCTAATAACCGTGCGGTGCCTCCGTGAGCTTACTCTCATGTAGTTCC
modifications: DNA, backbone and methylation of C not given here
notes: DNA SELEX 2 aptamer clone
Screen Rabbit/No Protein [3]: 2.57
Screen- Human/No Protein (full length human vWF): 2.87

B10: AMX237.A11: DNA SELEX 2 aptamer clone (nucleic acid)
chain: CTACCTACGATCTGACTAGCTCCAGTGTTTTATCCAATAACCGTGCGGTGCCTCCGTGAGCTTACTCTCATGTAGTTCC
modifications: DNA, backbone and methylation of C not given here
notes: DNA SELEX 2 aptamer clone
Screen Rabbit/No Protein [3]: 2.38
Screen- Human/No Protein (full length human vWF): 2.66

B11: AMX205.F7: rRdY aptamer clone (nucleic acid)
chain: rGrGrArGdCrGdCrAdCdTdCrArGdCdCrAdCrAdCrGrAdCrAdTdTrGrGdCrGrGrGdTdTrGdTrArAdTdTrAdCdCrAdCrGdCrAdTrGrGdCdTrGdTdTdTrGdTdTdTdCrGrAdCdCdTdCdTdCdTrGdCdTrArGdC
Screen- Rabbit/No Protein ([3]; rRdY aptamers): 2.37
Screen- Human/No Protein [4, 8]: 3.13
Kd [5, 9]: 1.5 nM
